Source: article PMC5424545 (Cell reports, 2017)

B1: Swp82 (natural protein, S. cerevisiae (endogenous in yeast), UniProt P43554 1-623, looked up)
chain: MLGEDEGNTVLEKGNNPSVKQGEVGAVFIVPKILIREHERVILKQILQILDQDELVQPPLDKFPYKKLELPKYIDELKTRDATNTSYKMIQLDAYGEKKVGSNGELFGGRHYLFNTFTFTAHMGVLLVLLQDVIKVLYQSNATHDEDEFIVQHDQILVMETSEEQTKFLAKNGVIPEESKGSFKYITARSAFVEFGASVIAGGQRIVDDYWESLAKKQNLSSHQRVFKLSTNLISKISLLRPSFQNNRISNANEISANTNNTCTISTSKFESQYPIVTEQPSAEIREAYIENFAKGEHISAIVPGQSISGTLELSAQFRVPRYHSKNSFQQALQMKAMDIPIGRHEELLAQYESQAPDGSASISLPNHIPSVNPSNKPIKRMLSSILDINVSSSKNKKSEENEMIKPMNKGQHKNNTSLNINGWKFESLPLKSAENSGKQQYYRGLPLYEKNTLLERLKQLTPNEIKELEHLHDAVFVNTGLQNVRKVRTKKWKKYWQYKAGIPIGLKRSQLDEFKNKYLKDVLAQTSVTTNFNEITNTDETITTKRVPNPNFLGNCNIKDFKPPYIYSHVNKVPQNVAGDKTAVKLDTEVKNTNANPVVATDPVAAKPDNLANFSNEVAMNN
B2: Swi1 (natural protein, S. cerevisiae (endogenous in yeast), UniProt P09547 1-1314, looked up)
chain: MDFFNLNNNNNNNNTTTTTTTTNNNNTNNNNTNNNNNPANNTNNNNSTGHSSNTNNNTNNNNTNTGASGVDDFQNFFDPKPFDQNLDSNNNNSNSNNNDNNNSNTVASSTNFTSPTAVVNNAAPANVTGGKAANFIQNQSPQFNSPYDSNNSNTNLNSLSPQAILAKNSIIDSSNLPLQAQQQLYGGNNNNNSTGIANDNVITPHFITNVQSISQNSSSSTPNTNSNSTPNANQQFLPFNNSASNNGNLTSNQLISNYAASNSMDRSSSASNEFVPNTSDNNNNSNNHNMRNNSNNKTSNNNNVTAVPAATPANTNNSTSNANTVFSERAAMFAALQQKQQQRFQALQQQQQQQQNQQQQNQQPQQQQQQQQNPKFLQSQRQQQQRSILQSLNPALQEKISTELNNKQYELFMKSLIENCKKRNMPLQSIPEIGNRKINLFYLYMLVQKFGGADQVTRTQQWSMVAQRLQISDYQQLESIYFRILLPYERHMISQEGIKETQAKRIFLQQFLQELLKKVQQQQQAAALANANNNINSASSAPTPAAPGASVPATAAPGTEAGIVPVSANTPKSLNSNININVNNNNIGQQQVKKPRKQRVKKKTKKELELERKEREDFQKRQQKLLEDQQRQQKLLLETKLRQQYEIELKKLPKVYKRSIVRNYKPLINRLKHYNGYDINYISKIGEKIDSNKPIFLFAPELGAINLHALSMSLQSKNLGEINTALNTLLVTSADSNLKISLVKYPELLDSLAILGMNLLSNLSQNVVPYHRNTSDYYYEDAGSNQYYVTQHDKMVDKIFEKVNNNATLTPNDSNDEKVTILVDSLTGNQLPTPTPTEMEPDLDTECFISMQSTSPAVKQWDLLPEPIRFLPNQFPLKIHRTPYLTSLKKIKDEIDDPFTKINTRGAEDPKVLINDQLSTISMILRNISFSDNNSRIMSRNFYLKRFISDLLWLVLIHPENFTCNRKILNFKKDLVIVLSNISHLLEIASSIDCLLILILVISFGQPKLNPMASSSSFGSESLTFNEFQLQWGKYQTFGVDILAKLFSLEKPNLNYFKSILLNKNTGNNLYDRNSNNNHKDKKLLRRLLNLYNDNNKNNNNRHNLLNDVVSFLFSAIPLQQVLSQSADPSLLIDQFSPVISQSLTSILVIVQKILPLSNEVFEISENNSDSNSNNNGNKDSSFNFNKNLPFVWLSSEENIGSGLLKLSEIILNINNSTSKNTLLQQQNYSKVLLPSINISCVQLIKCLVEKSICFENCLNNDPEILKKIASIPNLFPTDLEIFQLFTNPSVDIQIINQYQLLYNLKNDILTNLE
B3: Swi3 (natural protein, S. cerevisiae (endogenous in yeast), UniProt P32591 1-825, looked up)
chain: MENTLGEGSTVNASVDVDQHGNDNNSDSNANAAVAGVANTDTAGEESQQQDESLKDEATVPNTRDAESEAITVTAKQQPTMQANKLDSQETPSTEESRAQNVFGQDNEDSDNLFGETESSVSNNEANTPSIPTNPVDNENNKPAIKEDSTIQDSNGDVKNMEDVKIQKEEEPENNTVIEGVKEESQPDENTKEMDEVEEDDEDDDQPMISPDNSIFGDTKSESKQLGNTSSVANTPSEIPDAHKAEQEDIIEKTESVDKKVDSGEERNEQEREIMNDHSKSANPKKTTITRVEPETFEIPQAHEIVIPSYSKWFNLEKIHSIEVQSLPEFFTNRIPSKTPEVYMRYRNFMVNSYRLNPNEYFSVTTARRNVSGDAAALFRLHKFLTKWGLINYQVDSKLLPKNIEPPLTSQYSTRHDAPRGLFPFESYKPSVQLPDMAKLKKMMNTSDSESTLYKYLKESKRKYDEITHPPSTTDDENGDKNDNGGKMNNEVSTSTSMTGDANLLEEGETSRPLKKVKILEQIDENWSKEDLQKLLKGIQEFGADWYKVAKNVGNKSPEQCILRFLQLPIEDKFLYGDGNGKGDNDNGLGPLKYAPHLPFSKSENPVLSTIAFLVGLVNPKTVQSMTQRAIQSAESIKSQKEEISDQKPIEHIKEGSEIAISSLGYRSHIFATNEERQMNFLTNELIRLQMEKLDAKLNHLKKLEKFMELERKTLERQQENLLIQRLNFNQNSSKIVNVLSKCLNLISDSNINNSSVAEKEEIRSQIDHFKSMLSKPETLSIGKNPFNKPNIETGENHNGQSISNENDVKPISIEAPQFYRYWSA
B4: Taf14 (natural protein, S. cerevisiae (endogenous in yeast), UniProt P35189 1-244, looked up)
chain: MVATVKRTIRIKTQQHILPEVPPVENFPVRQWSIEIVLLDDEGKEIPATIFDKVIYHLHPTFANPNRTFTDPPFRIEEQGWGGFPLDISVFLLEKAGERKIPHDLNFLQESYEVEHVIQIPLNKPLLTEELAKSGSTEETTANTGTIGKRRTTTNTTAEPKAKRAKTGSASTVKGSVDLEKLAFGLTKLNEDDLVGVVQMVTDNKTPEMNVTNNVEEGEFIIDLYSLPEGLLKSLWDYVKKNTE
B5: Snf5 (natural protein, S. cerevisiae (endogenous in yeast), UniProt P18480 1-905, looked up)
chain: MNNQPQGTNSVPNSIGNIFSNIGTPSFNMAQIPQQLYQSLTPQQLQMIQQRHQQLLRSRLQQQQQQQQQTSPPPQTHQSPPPPPQQSQPIANQSATSTPPPPPAPHNLHPQIGQVPLAPAPINLPPQIAQLPLATQQQVLNKLRQQAIAKNNPQVVNAITVAQQQVQRQIEQQKGQQTAQTQLEQQRQLLVQQQQQQQLRNQIQRQQQQQFRHHVQIQQQQQKQQQQQQQHQQQQQQQQQQQQQQQQQQQQQQQQQQQQQQQQQQQQQGQIPQSQQVPQVRSMSGQPPTNVQPTIGQLPQLPKLNLPKYQTIQYDPPETKLPYPTYWSDKKADTDTLLYEQIIQRDKINKYSLIRETNGYDPFSIYGFSNKEYISRLWHTLKYYQDLKNTRMKSITSTSQKIPSASIWGNGYSGYGNGITNTTTRVIPQVEVGNRKHYLEDKLKVYKQAMNETSEQLVPIRLEFDQDRDRFFLRDTLLWNKNDKLIKIEDFVDDMLRDYRFEDATREQHIDTICQSIQEQIQEFQGNPYIELNQDRLGGDDLRIRIKLDIVVGQNQLIDQFEWDISNSDNCPEEFAESMCQELELPGEFVTAIAHSIREQVHMYHKSLALLGYNFDGSAIEDDDIRSRMLPTITLDDVYRPAAESKIFTPNLLQISAAELERLDKDKDRDTRRKRRQGRSNRRGMLALSGTSASNTSMNGVHNTVAAGNASSLPPGEILLPDIADIPRTFRTPVPSTLMPGGVDVGPSVESYELRNTTTYKSRPDRPKPVSPPCYIIDHIPGHSLLLSIKLPGKVNTKEEFAAAPNDTSSGTNAMLPSPESLKTKLNSNIRAGVTIPSIPNPIANHTVTNSPNPTLQPVIPGGAASKSVPTPSLPIAPPVAPHDSEATLLTNSNNGSSNNNTQNT
B6: Snf6 (natural protein, S. cerevisiae (endogenous in yeast), UniProt P18888 1-332, looked up)
chain: MGVIKKKRSHHGKASRQQYYSGVQVGGVGSMGAINNNIPSLTSFAEENNYQYGYSGSSAGMNGRSLTYAQQQLNKQRQDFERVRLRPEQLSNIIHDESDTISFRSNLLKNFISSNDAFNMLSLTTVPCDRIEKSRLFSEKTIRYLMQKQHEMKTQAAELQEKPLTPLKYTKLIAAAEDGSRSTKDMIDAVFEQDSHLRYQPDGVVVHRDDPALVGKLRGDLREAPADYWTHAYRDVLAQYHEAKERIRQKEVTAGEAQDEASLQQQQQQDLQQQQQVVTTVASQSPHATATEKEPVPAVVDDPLENMFGDYSNEPFNTNFDDEFGDLDAVFF

How the values were obtained:
Experiment in all cases: cross-linking
[1] = target: Snf2 with two FLAG tags at the C-terminus (S. cerevisiae (endogenous in yeast), UniProt P22082 1-1703)
Snf2 with two FLAG tags at the C-terminus, sequence (P22082 whole entry): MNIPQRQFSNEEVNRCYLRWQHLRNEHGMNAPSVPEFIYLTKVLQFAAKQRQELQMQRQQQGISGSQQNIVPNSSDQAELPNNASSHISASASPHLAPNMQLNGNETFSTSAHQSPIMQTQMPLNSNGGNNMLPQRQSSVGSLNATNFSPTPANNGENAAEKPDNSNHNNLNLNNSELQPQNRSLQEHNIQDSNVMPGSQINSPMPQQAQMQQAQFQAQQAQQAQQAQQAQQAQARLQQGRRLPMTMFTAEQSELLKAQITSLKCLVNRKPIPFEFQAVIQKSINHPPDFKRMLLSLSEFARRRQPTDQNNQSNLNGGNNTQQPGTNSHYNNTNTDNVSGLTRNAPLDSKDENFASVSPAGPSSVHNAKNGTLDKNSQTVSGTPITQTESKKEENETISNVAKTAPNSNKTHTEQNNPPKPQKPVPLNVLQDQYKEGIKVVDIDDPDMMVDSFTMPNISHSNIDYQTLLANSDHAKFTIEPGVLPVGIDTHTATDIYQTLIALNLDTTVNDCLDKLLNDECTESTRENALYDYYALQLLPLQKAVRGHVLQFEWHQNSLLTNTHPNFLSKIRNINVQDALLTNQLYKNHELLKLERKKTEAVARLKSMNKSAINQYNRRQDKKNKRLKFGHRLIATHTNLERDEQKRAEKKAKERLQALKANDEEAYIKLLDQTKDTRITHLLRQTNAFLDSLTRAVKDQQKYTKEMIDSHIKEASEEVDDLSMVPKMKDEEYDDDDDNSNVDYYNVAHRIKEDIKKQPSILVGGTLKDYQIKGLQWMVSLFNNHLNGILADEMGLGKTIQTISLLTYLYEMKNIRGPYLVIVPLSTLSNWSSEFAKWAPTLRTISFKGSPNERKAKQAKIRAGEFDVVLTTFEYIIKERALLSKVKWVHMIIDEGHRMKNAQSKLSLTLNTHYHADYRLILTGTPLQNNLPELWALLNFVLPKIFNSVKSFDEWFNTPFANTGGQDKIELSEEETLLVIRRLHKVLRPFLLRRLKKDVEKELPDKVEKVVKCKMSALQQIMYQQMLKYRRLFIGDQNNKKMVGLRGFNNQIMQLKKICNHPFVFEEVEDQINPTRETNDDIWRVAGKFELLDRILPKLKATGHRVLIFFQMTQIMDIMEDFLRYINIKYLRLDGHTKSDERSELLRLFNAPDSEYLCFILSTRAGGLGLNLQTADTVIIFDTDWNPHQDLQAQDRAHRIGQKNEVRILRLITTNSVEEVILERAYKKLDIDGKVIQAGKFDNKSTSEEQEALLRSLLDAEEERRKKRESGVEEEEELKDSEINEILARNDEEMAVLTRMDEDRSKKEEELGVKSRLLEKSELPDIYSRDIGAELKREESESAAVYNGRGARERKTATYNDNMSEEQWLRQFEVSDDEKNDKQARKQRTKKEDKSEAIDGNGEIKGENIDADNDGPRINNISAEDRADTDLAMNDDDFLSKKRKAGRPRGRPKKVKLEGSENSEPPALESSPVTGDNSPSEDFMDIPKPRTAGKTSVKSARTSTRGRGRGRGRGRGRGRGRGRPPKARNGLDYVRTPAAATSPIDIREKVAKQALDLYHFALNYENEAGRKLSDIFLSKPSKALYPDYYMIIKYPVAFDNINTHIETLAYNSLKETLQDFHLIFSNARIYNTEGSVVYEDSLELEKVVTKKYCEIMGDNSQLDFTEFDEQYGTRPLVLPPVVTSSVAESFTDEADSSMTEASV

Snf5 = target: B5
Swi1 = target: B2

| Binder | binding result [1] | binding result (Snf5) | binding result (Swi1) |
| --- | --- | --- | --- |
| B1 | binds | binds |  |
| B2 | binds |  |  |
| B3 | binds | binds |  |
| B4 | binds | binds |  |
| B5 | binds |  | binds |
| B6 |  | binds |  |
